Blank lines part the entries; values can stand above or below the binder they belong to.
B1: recombinant mouse VEGF164 (ligand, UniProt Q00731-2 27-190, looked up)
chain: APTTEGEQKSHEVIKFMDVYQRSYCRPIETLVDIFQEYPDEIEYIFKPSCVPLMRCAGCCNDEALECVPTSESNITMQIMRIKPHQSQHIGEMSFLQHSRCECRPKKDRTKPENHCEPCSERRKHLFVQDPQTCKCSCKNTDSRCKARQLELNERTCRCDKPRR
modifications: biotinylated as the labelled ligand of the mVEGF164/mVEGFR2 AlphaScreen
notes: also called mVEGF164; rmVEGF164

Columns and labels:
[1] = target: T1, mouse VEGFR2-huFc (mouse, UniProt P35918 20-762, limits assumed); test: AlphaScreen, unlabelled mVEGF164 against biotinylated mVEGF164 on mVEGFR2-hFc
T1 construct: also called mVEGFR2-hFc; mVEGFR2-Fc
Description: (§1) Finally, streptavidin donor beads (20 μg/ml) are added and after 1 hour of incubation fluorescence is measured on the Envision microplate reader.

[2] = target: T2, recombinant human VEGF165 (human, UniProt P15692-4 27-191, biotinylated in the competition assays); test: ELISA, hVEGF165/hVEGFR2-Fc competition; design: % inhibition: concentration or dose not given beside the values
T2 construct: Bought protein; also called hVEGF165; rhVEGF165

[3] = target: T2, recombinant human VEGF165; test: AlphaScreen, hVEGF165/hVEGFR2-Fc competition; design: % inhibition: concentration or dose not given beside the values
Description: (§2) Finally, streptavidin donor beads (20 μg/ml) are added and after 1 hour of incubation in the dark, fluorescence is measured on the Envision microplate reader.

[4] = target: T2, recombinant human VEGF165; test: AlphaScreen, hVEGF165/hVEGFR2-Fc competition, -HSA
[5] = target: T3, recombinant human VEGF121 (human, UniProt P15692-9 27-147); test: binding ELISA, coated rhVEGF121
T3 construct: also called rhVEGF121
T3 sequence (looked up): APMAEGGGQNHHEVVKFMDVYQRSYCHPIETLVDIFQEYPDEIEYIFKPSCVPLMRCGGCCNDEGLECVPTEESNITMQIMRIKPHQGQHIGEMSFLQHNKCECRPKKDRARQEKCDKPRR
Description: Binding to recombinant human VEGF121 is assessed via a solid phase binding ELISA. […] Wells are blocked with a casein solution (1% in PBS).

[6] = target: T4, VEGF (used to stimulate HUVEC cells) (UniProt P15692-4 27-191, limits assumed); test: cell-based or functional assay
[7] = target: T2, recombinant human VEGF165; test: ELISA, hVEGF165/hVEGFR1-Fc competition; design: % inhibition: concentration or dose not given beside the values
Target sequence in this assay (P15692 other isoform, or with tags, fused parts or gaps): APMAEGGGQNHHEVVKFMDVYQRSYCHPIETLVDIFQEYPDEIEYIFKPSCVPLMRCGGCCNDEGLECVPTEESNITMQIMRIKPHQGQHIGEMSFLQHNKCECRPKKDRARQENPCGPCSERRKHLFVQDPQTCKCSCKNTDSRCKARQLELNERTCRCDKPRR

[8] = target: T2, recombinant human VEGF165; test: binding ELISA, coated rhVEGF165
Target sequence in this assay (P15692 other isoform, or with tags, fused parts or gaps): as above

[9] = target: T4, VEGF (used to stimulate HUVEC cells); test: cell-based or functional assay; remark: listed apart in the source
[10] = target: T2, recombinant human VEGF165; test: AlphaScreen, hVEGF165/hVEGFR2-Fc competition, -HSA; remark: listed apart in the source
[11] = target: B1; test: AlphaScreen, mVEGF164/mVEGFR2-hFc competition
Description: as §1

[12] = target: T2, recombinant human VEGF165; test: AlphaScreen, hVEGF165/hVEGFR2-Fc competition, +5 uM HSA
[13] = target: T2, recombinant human VEGF165; test: SPR Biacore, immobilised hVEGF165, two state reaction model
Target sequence in this assay (P15692 other isoform, or with tags, fused parts or gaps): as above

[14] = target: T2, recombinant human VEGF165; test: AlphaScreen, hVEGF165/hVEGFR2-Fc competition
Description: as §2
Target sequence in this assay (P15692 other isoform, or with tags, fused parts or gaps): as above

[15] = target: B1; test: binding ELISA, coated rmVEGF164
Description: Cross-reactivity to mouse VEGF164 is determined using a binding ELISA. […] Wells are blocked with a casein solution (1% in PBS). […] A mouse VEGF164 reactive mAb is included as positive control.

[16] = target: T2, recombinant human VEGF165; test: AlphaScreen, hVEGF165/hVEGFR1-Fc competition; design: % inhibition: concentration or dose not given beside the values
Description: as §2
Target sequence in this assay (P15692 other isoform, or with tags, fused parts or gaps): as above

[17] = target: T2, recombinant human VEGF165; test: AlphaScreen, hVEGF165/hVEGFR1-Fc competition
Description: as §2
Target sequence in this assay (P15692 other isoform, or with tags, fused parts or gaps): as above

[18] = target: T2, recombinant human VEGF165; test: AlphaScreen, hVEGF165/hVEGFR1-Fc competition, -HSA
[19] = target: T5, human Jagged-1 (human, UniProt P78504 34-1067, limits assumed); test: ELISA, coated human Jagged-1
T5 construct: also called hJagged-1; hJAG1
Description: (§3) Absence of binding to homologous ligands human DLL1 and human Jagged-1 is assessed via solid phase binding assay (ELISA). In brief, human DLL1 (Alexis, San Diego, Calif., USA) and human Jagged-1 (Alexis, San Diego, Calif., USA) are coated overnight at 4° C. at 1 μg/mL in a 96-well MaxiSorp plate (Nunc, Wiesbaden, Germany). Wells are blocked with a casein solution (1% in PBS). VHHs are applied as dilution series and binding is detected using a mouse anti-myc (Roche) and an anti-mouse-AP conjugate (Sigma, St. Louis, Mo., USA).

[20] = target: T6, recombinant human DLL4 (human, UniProt Q9NR61 25-522); test: competition AlphaScreen, biot-hDLL4/hNotch1-Fc; partial inhibitor
T6 construct: also called rhDLL4; hDLL4

[21] = target: T7, human DLL4 overexpressed on cells (human, UniProt Q9NR61 27-685); test: competitive FMAT, hNotch1-Fc on CHO-hDLL4
T7 construct: full length human DLL4 on CHO or HEK293 cells; also called CHO-hDLL4; CHO-hDII4

[22] = target: T8, human DLL1 (human, UniProt O00548 18-545, limits assumed); test: ELISA, coated human DLL1
T8 construct: also called hDLL1
T8 sequence (looked up): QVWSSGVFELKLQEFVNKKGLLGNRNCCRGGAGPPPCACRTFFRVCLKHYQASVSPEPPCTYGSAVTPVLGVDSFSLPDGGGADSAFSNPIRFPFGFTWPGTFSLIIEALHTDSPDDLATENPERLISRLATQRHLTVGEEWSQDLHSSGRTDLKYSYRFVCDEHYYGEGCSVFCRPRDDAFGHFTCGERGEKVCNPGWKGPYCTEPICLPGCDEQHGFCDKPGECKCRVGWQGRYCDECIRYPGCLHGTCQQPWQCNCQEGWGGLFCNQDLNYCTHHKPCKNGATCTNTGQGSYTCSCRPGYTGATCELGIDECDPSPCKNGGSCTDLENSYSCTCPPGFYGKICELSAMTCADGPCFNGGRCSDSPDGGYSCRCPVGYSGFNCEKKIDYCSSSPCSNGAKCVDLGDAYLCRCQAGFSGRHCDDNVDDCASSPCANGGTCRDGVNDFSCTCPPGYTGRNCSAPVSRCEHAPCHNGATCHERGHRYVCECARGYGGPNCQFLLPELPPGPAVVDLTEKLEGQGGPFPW
Description: as §3

[23] = target: T6, recombinant human DLL4; test: binding ELISA, coated rhDLL4
Description: (§4) In order to determine cross-reactivity to mouse DII4 a binding ELISA is performed. […] Wells are blocked with a casein solution (1% in PBS). VHHs are applied as dilution series and binding is detected using a mouse anti-myc (Roche) and an anti-mouse-AP conjugate (Sigma, St Louis, Mo., USA) (FIG. 7 A-H). As reference, binding to human DII4 is measured.

[24] = target: T6, recombinant human DLL4; test: Biacore off-rate, periplasmic extract
[25] = target: T6, recombinant human DLL4; test: hDLL4 ELISA screen, periplasmic extract
[26] = target: T9, recombinant mouse DLL4 (mouse, UniProt Q9JI71 27-532); test: binding ELISA, coated rmDLL4
T9 construct: extracellular domain; also called rmDLL4; mDLL4
Description: as §4

T4 sequence (P15692 other isoform, or with tags, fused parts or gaps limits assumed): as the sequence (P15692 other isoform, or with tags, fused parts or gaps) above
T1 sequence (P35918 20-762 limits assumed): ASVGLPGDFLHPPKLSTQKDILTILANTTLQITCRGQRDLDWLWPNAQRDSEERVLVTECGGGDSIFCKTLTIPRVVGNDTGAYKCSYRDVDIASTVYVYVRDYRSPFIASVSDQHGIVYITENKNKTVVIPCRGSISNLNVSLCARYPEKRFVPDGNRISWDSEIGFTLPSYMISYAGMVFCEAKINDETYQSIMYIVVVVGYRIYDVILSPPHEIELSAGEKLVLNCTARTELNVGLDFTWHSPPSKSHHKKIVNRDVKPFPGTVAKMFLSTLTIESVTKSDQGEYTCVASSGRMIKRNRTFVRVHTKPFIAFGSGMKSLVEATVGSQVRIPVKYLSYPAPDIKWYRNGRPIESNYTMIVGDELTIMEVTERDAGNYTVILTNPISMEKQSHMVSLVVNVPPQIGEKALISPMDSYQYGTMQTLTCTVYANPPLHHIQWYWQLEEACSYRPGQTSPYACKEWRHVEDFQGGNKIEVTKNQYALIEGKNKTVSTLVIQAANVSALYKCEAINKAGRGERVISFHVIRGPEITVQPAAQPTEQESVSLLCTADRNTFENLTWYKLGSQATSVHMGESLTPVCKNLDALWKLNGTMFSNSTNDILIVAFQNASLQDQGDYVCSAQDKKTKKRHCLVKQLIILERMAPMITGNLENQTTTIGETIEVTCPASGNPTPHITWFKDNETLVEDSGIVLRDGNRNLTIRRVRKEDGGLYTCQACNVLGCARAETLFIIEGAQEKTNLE
T9 sequence (Q9JI71 27-532): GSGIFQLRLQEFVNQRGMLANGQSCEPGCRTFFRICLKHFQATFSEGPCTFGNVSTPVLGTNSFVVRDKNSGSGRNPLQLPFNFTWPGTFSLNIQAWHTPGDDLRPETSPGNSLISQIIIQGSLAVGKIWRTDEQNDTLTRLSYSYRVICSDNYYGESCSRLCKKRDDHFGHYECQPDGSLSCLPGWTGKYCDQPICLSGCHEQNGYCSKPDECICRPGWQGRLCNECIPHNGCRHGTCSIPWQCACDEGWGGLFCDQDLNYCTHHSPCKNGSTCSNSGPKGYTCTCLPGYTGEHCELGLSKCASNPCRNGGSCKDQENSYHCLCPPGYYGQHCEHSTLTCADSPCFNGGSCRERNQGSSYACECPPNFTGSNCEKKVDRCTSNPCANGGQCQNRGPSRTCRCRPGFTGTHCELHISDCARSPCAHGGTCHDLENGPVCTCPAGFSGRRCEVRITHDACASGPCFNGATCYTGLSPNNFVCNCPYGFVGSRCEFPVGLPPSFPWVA

Binder: B1
IC50 [1]: 0.05 nM

% inhibition [2]: 100%
IC50 [2]: 0.164 nM
% inhibition [3]: 100%
IC50 [3]: 0.007 nM
% inh [4]: 100%
IC50 [4]: 0.017 nM
EC50 [5]: 0.54 nM
% inhibition, VEGF HUVEC proliferation assay [6]: 100%
IC50, VEGF HUVEC proliferation assay [6]: 0.34 nM
% inhibition [7]: 89%
IC50 [7]: 0.225 nM
EC50 [8]: 0.224 nM
% inhibition, VEGF HUVEC Erk phosphorylation assay [9]: 94%
IC50, VEGF HUVEC Erk phosphorylation assay [9]: 0.18 nM
% inh [10]: 100%
IC50 [10]: 0.05 nM
IC50 [11]: 108 nM
IC50 [12]: 0.03 nM
Kd [13]: 0.14 nM
ka1 [13]: 1.2e+06 M⁻¹ s⁻¹
ka2 [13]: 0.014 s⁻¹
kd1 [13]: 0.0091 s⁻¹
kd2 [13]: 0.00026 s⁻¹
IC50 [14]: 0.007 nM
EC50 [15]: 0.464 nM
% inhibition [16]: 98%
IC50 [16]: 0.009 nM
% inhibition [17]: 100%
IC50 [17]: 0.008 nM
% inh [18]: 87%
IC50 [18]: 0.07 nM
B2: VEGFBII022 (VHH, not shown: small tags and cut ends)
chain: EVQLVESGGGLVQTGDSLRLSCEVSGRTFSSYSMGWFRQAQGKEREFVVAISKGGYKYDSVSLEGRFTISKDNAKNTVYLQINSLKPEDTAVYYCASSRAYGSSRLRLADTYEYWGQGTQVTVSSGGGGSGGGSEVQLVESGGGLVQPGGSLRLSCVASGIRFMSMAWYRQAPGKHRELVARISSGGTTAYVDSVKGRFTISRDNSKNTVYLQMNSLKAEDTAVYYCNTFSSRPNPWGAGTQVTVSS
notes: Bivalent (heterodimeric) anti-VEGF VHH; also called VEGFBII23B04-9GS-5B05

binding result [19]: no binding
IC50 [20]: 0.05 nM
IC50 [21]: 33 nM
binding result [22]: no binding
EC50 [23]: 0.9 nM
koff [24]: 0.0011 s⁻¹
% inh [25]: 98%
EC50 [26]: 0.8 nM
B3: DLLBII19F04 (VHH)
VHH: EVQLVESGGGLVQAEGSLRLSCAASGSTFSTYAMAWYRQAPGKQRELVAGISFDGSTHYAESVKGRFTISRDDAKNTVSLQMNSLKPEDAAVYYCYSVHPSTGFGSWGQGTQVTVSS
